Measured values reported in publication PMC4441257, “A large genomic island allows Neisseria meningitidis to utilize propionic acid, with implications for colonization of the human nasopharynx” (Molecular Microbiology, 2014).

System: CCC(=O)O
Assay: purified protein
Source text: hydroxamate assay of propionate kinase activity on NMB0435 (AckA1)

NMB0435 (AckA1) (Neisseria meningitidis MC58)
Km: 16.3 ± 2.2 mM
